Results on 2 substances are retold here after publication PMC10665946.

In experiment [1] the target is WT CC8 LukAB (leukocidin A/leukocidin B) heterodimer (S. aureus). The experiment is described as follows: negative stain electron microscopy; 0.03 mg/ml protein in TBS + 40% v/v MPD, RT 45 min; uranyl formate stain; 2D class averages.
Experiment [2] has as its target V113A LukB CC8 LukAB (S. aureus). The experiment is described as follows: negative stain electron microscopy; 0.03 mg/ml protein in TBS + 20% v/v MPD, RT 45 min; uranyl formate stain; 2D class averages.
Experiment [3] has the same target. The experiment is described as follows: negative stain electron microscopy; 0.03 mg/ml protein in TBS + 40% v/v MPD, RT 45 min; uranyl formate stain; 2D class averages.

Regarding “WT CC8 LukAB (leukocidin A/leukocidin B) heterodimer (complex)”, the stoichiometry N in experiment [1] was found to be 8.
In the case of V113A LukB CC8 LukAB (complex), the stoichiometry N in experiment [2] and in experiment [3] was 8 throughout.
